In patent publication US20170165337A1 (IMMATICS BIOTECHNOLOGIES, published 2017) one finds peptide exchange yield data, which are given here for 61 molecules.

In the assay the target is T1, HLA-A*02:01 (human).
T1 construct: MHC class I monomer of the UV-ligand exchange assay; also called peptide-receptive MHC molecules; MHC class I
In words: UV peptide-exchange ELISA. The source says: Candidate peptides for T cell based therapies according to the present invention were further tested for their MHC binding capacity (affinity). The individual peptide-MHC complexes were produced by UV-ligand exchange, where a UV-sensitive peptide is cleaved upon UV-irradiation, and exchanged with the peptide of interest as analyzed. Only peptide candidates that can effectively bind and stabilize the peptide-receptive MHC molecules prevent dissociation of the MHC complexes. To determine the yield of the exchange reaction, an ELISA was performed based on the detection of the light chain (β2m) of stabilized MHC complexes. The assay was performed as generally described in Rodenko et al. (Rodenko et al., 2006).
96 well MAXISorp plates (NUNC) were coated over night with 2 ug/ml streptavidin in PBS at room temperature, washed 4× and blocked forl h at 37° C. in 2% BSA containing blocking buffer. Refolded HLA-A*02:01/MLA-001 monomers served as standards, covering the range of 15-500 ng/ml. Peptide-MHC monomers of the UV-exchange reaction were diluted 100 fold in blocking buffer. Samples were incubated for 1 h at 37° C., washed four times, incubated with 2 ug/ml HRP conjugated anti-β2m for 1 h at 37° C., washed again and detected with TMB solution that is stopped with […]. Absorption was measured at 450 nm. Candidate peptides that show a high exchange yield (preferably higher than 50%, most preferred higher than 75%) are generally preferred for a generation and production of antibodies or fragments thereof, and/or T cell receptors or fragments thereof, as they show sufficient avidity to the MHC molecules and prevent dissociation of the MHC complexes.
Background: In an ELISA, binding on a coated surface is turned into a signal by an enzyme label.
In the case of ALLNLLESA, the peptide exchange yield lay in the range of 50 to 75%.

On to KLKDRLPSI, for which the peptide exchange yield lay in the range of 20 to 50%.

Take RLLDEQFAVL: the peptide exchange yield lay in the range of 50 to 75%.

GLDDLLLFL: the peptide exchange yield lay in the range of 50 to 75%.

Turning to FMHQIIDQV, the peptide exchange yield is ≥ 75%.

Take ILAGEMLSV: the peptide exchange yield is 50 to 75%.

On to ILQERELLPV, for which the peptide exchange yield fell in the range of 50 to 75%.

LLVQEPDGLMV: the peptide exchange yield was in the range of 50 to 75%.

As to ALWDPVIEL, the peptide exchange yield lay in the range of 50 to 75%.

For the molecule ILQALAVHL, the peptide exchange yield lay in the range of 50 to 75%.

In turn, TLLDWQDSL gave a peptide exchange yield of 50 to 75%.

Take GLVETELQL: the peptide exchange yield was 50 to 75%.

Regarding TILDYINVV, the peptide exchange yield lay within 50 to 75%.

LLYDNVPGA gave a peptide exchange yield of 50 to 75%.

For the molecule TVLPVPPLSV, the peptide exchange yield was in the range of 50 to 75%.

Consider KIMDYSLLLGV, for which the peptide exchange yield is ≥ 75%.

ILPTLEKELFL came in with a peptide exchange yield of 50 to 75%.

For TLLQVFHLL, the peptide exchange yield lay in the range of 50 to 75%.

For the molecule ALWELSLKI, the peptide exchange yield is 50 to 75%.

Take QLLPVSNVVSV: the peptide exchange yield lay within 50 to 75%.

ALPEILFAKV came in with a peptide exchange yield of 50 to 75%.

Regarding SQWEDIHVV, the peptide exchange yield lay within 50 to 75%.

QLIPKLIFL: the peptide exchange yield lay within 50 to 75%.

Consider FLYIRQLAI, for which the peptide exchange yield lay within 50 to 75%.

The molecule LLPTGVFQV came in with a peptide exchange yield of 50 to 75%.

In turn, ILGDILLKV had a peptide exchange yield of 50 to 75%.

Take ATYSGLESQSV: the peptide exchange yield lay within 20 to 50%.

Take TLLDQLDTQL: the peptide exchange yield was in the range of 20 to 50%.

For the molecule ILLGIQELL, the peptide exchange yield lay within 50 to 75%.

The molecule ALVSTIIMV had a peptide exchange yield of 10 to 20%.

Regarding GLDDAEYAL, the peptide exchange yield was in the range of 20 to 50%.

Take NLWSVDGEVTV: the peptide exchange yield was in the range of 50 to 75%.

In turn, TLLADDLEIKL gave a peptide exchange yield of 50 to 75%.

FLQDSKVIFV gave a peptide exchange yield of 50 to 75%.

In turn, ILARDILEI came in with a peptide exchange yield of 50 to 75%.

AMNISVPQV registered a peptide exchange yield of 50 to 75%.

As for GLQENLDVVV, the peptide exchange yield is ≥ 75%.

NLLDPGSSYLL gave a peptide exchange yield of 50 to 75%.

Regarding ALDEPPYLTV, the peptide exchange yield lay in the range of 50 to 75%.

In the case of AMAGDVVYA, the peptide exchange yield lay within 50 to 75%.

For ALWAGLLTL, the peptide exchange yield was in the range of 50 to 75%.

The molecule GIIDINVRL showed a peptide exchange yield of 20 to 50%.

TLTDEQFLV registered a peptide exchange yield of 20 to 50%.

In the case of ALGEEWKGYVV, the peptide exchange yield was 20 to 50%.

Regarding ALWVSQPPEI, the peptide exchange yield was in the range of 50 to 75%.

Regarding SLDDVEGMSV, the peptide exchange yield lay within 50 to 75%.

ALYLTEVFL: the peptide exchange yield was ≥ 75%.

With WLAGDVPAA, the peptide exchange yield lay in the range of 50 to 75%.

Regarding FLGGLSPGV, the peptide exchange yield fell in the range of 50 to 75%.

YLFEEAISM registered a peptide exchange yield of 50 to 75%.

For FLLNLQNCHL, the peptide exchange yield was ≥ 75%.

FLAEASVMTQL gave a peptide exchange yield of 50 to 75%.

In turn, RLDYITAEI came in with a peptide exchange yield of 50 to 75%.

With KLDETGVAL, the peptide exchange yield lay within 20 to 50%.

For the molecule GLLESGRHYL, the peptide exchange yield lay in the range of 50 to 75%.

The molecule VMQDIVYKL showed a peptide exchange yield of 50 to 75%.

For SLWNAGTSV, the peptide exchange yield lay within 50 to 75%.

SLVEAQGWLV gave a peptide exchange yield of 50 to 75%.

Consider AVLLVLPLV, for which the peptide exchange yield lay within 50 to 75%.

Consider KTVEPPISQV, for which the peptide exchange yield lay in the range of 20 to 50%.

AMEALVVEV: the peptide exchange yield was in the range of 50 to 75%.
